Data set [1] deals with T1, PsMYB306 (Paeonia suffruticosa, UniProt A0A7M3T7P1 1-327). The data set can be described thus: EMSA; LightShift EMSA Optimization and Control Kit (Pierce); buffer, salt, pH and temperature not stated. The settings on record: protein: recombinant; tags: His (pET28a, BamHI/HindIII); label: biotin (5' of strand 1 as printed, Bio-); blunt.
In data set [2] the target is T1, PsMYB306. The data set can be described thus: competition; unlabeled competitor at 50- and 100-fold against N1; signal attenuated; LightShift EMSA Optimization and Control Kit (Pierce); buffer, salt, pH and temperature not stated. To be noted: protein: recombinant; tags: His (pET28a, BamHI/HindIII); label: none; blunt. For orientation: A gel shift assay detects complexes by their altered migration in electrophoresis.

T1 sequence (A0A7M3T7P1 entry or part of it): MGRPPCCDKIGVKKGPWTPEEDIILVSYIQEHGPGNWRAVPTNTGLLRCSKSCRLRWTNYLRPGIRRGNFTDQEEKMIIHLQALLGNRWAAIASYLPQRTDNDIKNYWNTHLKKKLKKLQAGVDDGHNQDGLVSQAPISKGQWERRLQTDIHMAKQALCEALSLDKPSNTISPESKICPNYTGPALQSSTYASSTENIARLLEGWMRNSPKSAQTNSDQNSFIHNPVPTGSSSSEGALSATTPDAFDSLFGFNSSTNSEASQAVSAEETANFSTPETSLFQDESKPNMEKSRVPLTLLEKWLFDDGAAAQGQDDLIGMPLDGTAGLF

B1: pPsNCED3 mutant probe (dsDNA)
DNA 1: ACTTAGGATTACTCAGCCATAACTTCCTTCTT
DNA 2: AAGAAGGAAGTTATGGCTGAGTAATCCTAAGT
As for B1, the binding result in data set [1] was “no binding”.

B2: pPsNCED3 WT probe (dsDNA)
DNA 1: ACTTAGGATTACTAGTTAATAACTTCCTTCTT
DNA 2: AAGAAGGAAGTTATTAACTAGTAATCCTAAGT
Consider B2, for which, in data set [1], the binding result was “binds”.

B3: pPsNCED3 WT cold competitor (dsDNA)
DNA 1: B2 DNA 1
DNA 2: B2 DNA 2
Consider B3, for which the binding result in data set [2] is “binds”.

The values above are taken from paper PMC10980420, “Abscisic acid–induced transcription factor PsMYB306 negatively regulates tree peony bud dormancy release”.
